Measured values: US6919086B1, “Graminae pollen allergen mutants for specific immunotherapy, and production and use of the same” (Merck Patent Gesellschaft mit, priority 1997, dated 2005)
Entries after “also recorded” stand apart in the source; their conditions may differ. Where two headings read alike, the source gives them in different places.

Legend:
[1] = biological target: specific IgE on basophils from the blood of allergic patient; experiment: cell-based or functional assay
[2] = biological target: IgE antibodies of the individual allergic patient serum II/3; experiment: EAST inhibition, individual serum II/3
[3] = tested on: basophils from the blood of an allergic patient; experiment: Histamine release from basophils; type: cell-based, human
Method: Apart from the binding of the allergen to the spec. IgE, the allergen-induced, IgE-mediated release of histamine by allergic effect or cells is of pathophysiological importance for the allergic reaction (side effect). The reactivity of the effector cells (basophils and mast cells) and the epitope specificity of the IgE antibodies which are bound by way of FcεRI are also of importance in this context. For this reason, the modified recombinant allergen variants are tested for their ability to induce histamine release by the degranulation of IgE-loaded basophils which are isolated from the blood of allergic patients.
Before the histamine release test was carried out, the basophilic leucocytes from the EDTA blood of an allergic patient ([…]) were first of all enriched by means of dextran sedimentation and then adjusted to a final concentration of 100,000 basophils/ml. In order to release histamine from the basophils, 200 μl of the cell suspension were in each case incubated, at 37° C. for 40 min, with 50 μl of antigen solution. For this, the rPh1 […] p 5b and the mutants were employed in varying concentrations (of 10^−5-10^−12 M). The histamine which was released was determined in the respective supernatants using the Pharmacia methylhistamine RIA in accordance with the manufacturer's instructions.

[4] = biological target: IgE antibodies of the individual allergic patient serum II/17; experiment: EAST inhibition, individual serum II/17
[5] = tested on: IgE antibodies of allergic patients; experiment: EAST inhibition test (IgE reactivity / allergenicity); type: binding, human; conditions: for IC50: read-out: Inhibition value 50% (concentration of the inhibitor at 50% inhibition); for Allergenic potency (Prel) 25%: relative to native Phl p 5b at 25% inhibition; for Allergenic potency (Prel) 50%: relative to native Phl p 5b at 50% inhibition
Method: The effects of the induced mutations on the allergenicity, i.e. the ability to bind to the IgE antibodies of allergic patients, of the modified recombinant allergens is determined qualitatively and quantitatively by means of the EAST inhibition test. […] The extent of the immunochemical relatedness (cross reactivity) can also be quantified. This EAST inhibition test only takes the reaction with IgE antibodies into account.
The binding of the allergens by the IgE antibodies is the basic prerequisite for the allergen-specific activation of the effector cells (mast cells, basophils, inter alia) in type I allergy. The allergen-specific inhibition of the enzyme/allergen sorbent test (EAST) is the best means for qualitatively and quantitatively recording the binding of the allergens to IgE anti-bodies. The EAST inhibition test is carried out as follows. Microtitre plates are coated with allergen (natural or recombinant Ph1 p 5 or Ph1 p 5b) (1 μg/ml). After the unbound allergen molecules have been removed by washing, non-specific plastic binding sites are blocked with bovine serum albumin (0.5%). […] from allergic patients, as a representative pool of 10-30 donors or as an individual serum, is incubated, in a suitable dilution, with the allergen-coated microtritre plates. The bound allergen-specific IgE antibodies are quantified using enzyme-coupled anti-IgE antibodies (e.g. alk. phosphatase-a-IgE antibodies). This binding is inhibited by soluble allergen or the substance to be tested (allergen mutants) in dependence on the concentration. The inhibition curve obtained with the purified natural allergen Ph1 p 5b is used as the reference.

[6] = allergic patient serum pool Bor 18/100
[7] = allergic patient serum pool We 6/97
[8] = individual allergic patient serum II/3
[9] = individual allergic patient serum II/12
[10] = individual allergic patient serum II/17

B1: rPhl p 5b deletion mutant DM3 (deletion A154-T177, A220T) (protein)
chain: ADAGYAPATPAAAGAAAGKATTEEQKLIEDINVGFKAAVAAAASVPAADKFKTFEAAFTSSSKAAAAKAPGLVPKLDAAYSVAYKAAVGATPEAKFDSFVASLTEALRVIAGALEVHAVKPVTEEPGMAKIPAGELQIIDKIDAAFKVAATAAGGAYDTYKCIPSLEAAVKQAYAATVAAAPQVKYAVFEAALTKTITAMSEVQKVSQPATGAATVAAGAATTAAGAASGAATVAAGGYKV
For B1, the concentration required to bring about a 30% histamine release from basophils, against wild type rPh1 p 5b [1] was 3 fold higher, the IC50 [2] was 32000 µM and the allergenic potency (Prel) at 25% inhibition (relative to native Phl p 5b) [2] was 0.0004. The allergenic potency (Prel) at 50% inhibition (relative to native Phl p 5b) [2] was 1.8e-07, the inhibition value (inhibitor concentration at 25% inhibition) [2] was 1.1e-06 mol/L and the “Concentration required to bring about a 30% histamine release, fold higher than wild type rPhl p 5b” value [3] was 3 fold. It also gave an IC50 [4] of 0.05 µM, an allergenic potency (Prel) at 25% inhibition (relative to native Phl p 5b) [4] of 0.038 and an allergenic potency (Prel) at 50% inhibition (relative to native Phl p 5b) [4] of 0.0005. For the same molecule, the inhibition value (inhibitor concentration at 25% inhibition) [4] was 5.6e-09 mol/L, the “Allergenicity / IgE reactivity, overall assessment (in words)” value ([5]; all serum pools and individual sera, Prel values) was “marked reduction in allergenicity; also recorded: greatly reduced, it is still detectable” and the “Inhibition value 25% (concentration of the inhibitor at 25% inhibition)” value [5, 6] was 1.2e-09 mol/L. For the same molecule, the IC50 [5, 6] was 4.1 µM, the “Inhibition value 25% (concentration of the inhibitor at 25% inhibition)” value [5, 7] was 5.1e-09 mol/L and the IC50 [5, 7] was 0.029 µM. The “Inhibition value 25% (concentration of the inhibitor at 25% inhibition)” value [5, 8] was 1.1e-06 mol/L, the IC50 [5, 8] was 32000 µM and the “Inhibition value 25% (concentration of the inhibitor at 25% inhibition)” value [5, 9] was 4.5e-09 mol/L. The IC50 [5, 9] was 100 µM, the “Inhibition value 25% (concentration of the inhibitor at 25% inhibition)” value [5, 10] was 5.6e-09 mol/L and the IC50 [5, 10] was 0.05 µM. For the same molecule, the “Allergenic potency (Prel) 25%” value ([5]; individual serum II/3) was 0.0004, the “Allergenic potency (Prel) 25%” value ([5]; individual serum II/12) was 0.012 and the “Allergenic potency (Prel) 25%” value ([5]; individual serum II/17) was 0.038. The “Allergenic potency (Prel) 25%” value ([5]; serum pool Bor 18/100) was 0.028, the “Allergenic potency (Prel) 25%” value ([5]; serum pool We 6/97) was 0.099 and the “Allergenic potency (Prel) 50%” value ([5]; individual serum II/3) was 1.8 × 10^−7. For the same molecule, the “Allergenic potency (Prel) 50%” value ([5]; individual serum II/12) was 5.7 × 10^−5, the “Allergenic potency (Prel) 50%” value ([5]; individual serum II/17) was 0.0005 and the “Allergenic potency (Prel) 50%” value ([5]; serum pool Bor 18/100) was 0.0001. For the same molecule, the “Allergenic potency (Prel) 50%” value ([5]; serum pool We 6/97) was 0.0020, the “EAST inhibition curve / inhibitory effect (in words)” value ([5]; serum pool Bor 18/100 (20 donors), FIG. 1) was “markedly decreased inhibitory effect” and the “Allergenicity from EAST inhibition curves (in words)” value ([5]; serum pool We 6/97 and individual sera II3, II12, II17, FIGS. 2-5) was “greatly reduced allergenicity”.
